The values that follow come from US20230050148A1, “TGF-BETA INHIBITORS AND USE THEREOF” (SCHOLAR ROCK, INC., priority 2020, published 2023).

For one data set, the system named is Cloudman S91 tumors. Briefly: Cloudman S91 melanoma model. It counts as in vivo, DBA/2 mouse. The settings on record: dose range 3, 10 and 30 mg/kg. As to the method:
Clone M3 [Cloudman S91 melanoma] (ATCC® CCL-53.1™) cells were obtained from the American Type Culture Collection (ATCC), and were maintained at CR Discovery Services as exponentially growing suspension cultures in Kaighn's modified Ham's F12 Medium supplemented with 2.5% fetal bovine serum, 15% horse serum, 2 mM glutamine, 100 units/mL penicillin G sodium, 100 μg/mL streptomycin sulfate and 25 μg/mL gentamicin. The tumor cells were grown in tissue culture flasks in a humidified incubator at 37° C., in an atmosphere of 5% CO2 and 95% air.
When tumors reached a volume of 125-175 mm^3 mice were randomized into groups of 12 with identical mean tumor volumes and dosing began.
Group 1 received anti-PD-1 antibody only. […] An untreated control was used, data not shown.
Percent tumor growth delay (% TGD) is defined as the increase in the median time to endpoint in a treatment group compared to the untreated control, expressed as a percentage of the median time to endpoint (TTE) of the control: • T=median TTE for treatment • C=median TTE for control
Results are summarized below (see FIGS. 9, 11 & 12).
(§1) All antibodies were dosed intraperitoneally.

The subject of the next data set is MBT2 tumors. Briefly: MBT2 syngeneic bladder cancer model, efficacy. It counts as in vivo, C3H/HeN mouse. Here is the method:
Group 1 received anti-PD-1 antibody only. […] An untreated control was used, not shown.
as §1

Data set [1] concerns intratumoral immune cells in MBT2 tumors. The experiment in a line: MBT2 tumor immune contexture (flow cytometry, IHC, qPCR). It counts as in vivo, mouse. The settings on record: MBT-2. The source says:
To study the immune effects of anti-PD-1 or Ab6-mIgG1 treatment as single agents or in combination, MBT-2 tumors were harvested from mice 10 days after treatment initiation and then subjected to immunohistochemical and flow cytometry analyses of select immune cell markers. […] The relevance of this increase in Treg cells is unclear given the significant anti-tumor effects observed with combination treatment. […] This appears to be due to selective reduction in CD11 b+CD206+ and CD11 b+Gr1+ subpopulations, which correspond to immunosuppressive M2-like macrophages and myeloid-derived suppressor cells (MDSC), respectively. Collectively, the representation of these two populations of cells is reduced from an average of 47% of the CD45+ cell population to 14% after combination treatment (FIG. 28B).
Each study group contained 12 mice with MBT2 tumors as described herein. […]
Flow cytometric analysis: Tumor-associated immune cell subsets were also analyzed by tumor flow cytometry in MBT-2 tumors. […] Flow cytometry was performed on a Attune NxT (ThermoFisher) and analyzed with FlowJo (BD Bioscience).
For immunohistochemical analysis, tumors from six animals were cut in halves and fixed. […] FIG. 30E provides the quantitation of the IHC data, shown as % of CD8-positive cells of total nuclei. […]

The test system of a further data set is EMT6 tumors. The experiment in a line: EMT-6 syngeneic breast carcinoma model. It counts as in vivo, BALB/c mouse. The settings on record: dose 10 mg/kg. As to the method: EMT6 tumors were implanted subcutaneously. Treatment began when EMT6 tumors reached 30-80 mm^3. Anti-PD-1 was dosed at 10 mkg twice weekly. […] Anti-TGFβ3 neutralizing antibody was dosed at 30 mkg once weekly.
Responders are defined as those achieving tumor size of <25% of the endpoint volume at study end.
as §1

Data set [2] can be described thus: first-in-human dose selection (allometric scaling, PAD, safety factors). The note with it: S91, MBT-2, EMT-6 models, with anti-PD-1. As to the method: In vivo pharmacology data was utilized to predict the human pharmacological active dose (PAD) and recommended the FIH dose. In addition, safety margins were determined between the predicted exposure at the recommended FIH dose and the exposure achieved at the NOAELs in toxicology studies.

For data set [3] the following is noted: mouse, in vivo, iv.
Method: Pharmacokinetics studies were conducted in female C57BL/6 mice, SD rats, and cynomolgus monkeys. […] A non-GLP single-dose PK study was performed in C57BL/6 mice (10-11 weeks) at Gateway Pharmacology Laboratories in Chesterfield, Mo. Additional pharmacokinetic and toxicology studies were conducted in naive young adult Sprague Dawley rats (7-10 weeks) and cynomolgus monkeys (2-4 years).
The lower limit of quantitation (LLOQ) for the non-GLP assays were 125, 125, and 250 ng/mL for the mouse, rat, and cynomolgus monkey, respectively; and 75 ng/mL for the optimized and validated GLP assays (rat and monkey). The absorbance-versus concentration relationship was regressed using a 4-parameter logistic curve fit (with a weighting factor of 1/Y2 for the validated assays to support the toxicokinetic studies), and concentrations were calculated using GraphPad Prism or Watson LIMS (Thermo, Pennsylvania, USA) data reduction software.
Female mice were group housed (3-5 mice/cage) in polycarbonate cages containing appropriate bedding and water valves in a controlled environment (17.8-26.7° C.; 30-70% relative humidity; 12-hour light and dark cycles) and were offered standard rodent chow (PicoLab Rodent Diet 20) and tap water ad libitum. Mice were randomly assigned to treatment groups for all studies.
PK parameters were calculated in Phoenix® WinNonlin® (Certara USA Inc.) from the concentration-time data using a noncompartmental analysis method with intravenous (IV) bolus input. Nominal doses and sampling times were used. […] Area under the concentration time curve (AUC) was computed using the linear trapezoidal approximation method. Terminal half-life (t1/2) was estimated by log-linear regression of the terminal phase of the mean concentration versus time profiles. At least 3 points clearly visible in the terminal phase, an r^2 value of at least 0.8, and time interval of at least 3 half-lives (in the GLP toxicity studies only) were required to characterize half-life.

Read-outs that look alike come from different tables or passages of the source.

B1: Ab6-mIgG1: chimeric antibody with the human V domains of Ab6 fused to mouse IgG1/kappa constant domains (protein)
heavy chain: EVQLVESGGGLVQPGGSLRLSCTASGFTFSSFSMDWVRQAPGKGLEWVSYISPSADTIYYADSVKGRFTISRDNAKNTLYLQMNSLRAEDTAVYYCARGVLDYGDMLMPWGQGTLVTVSS
light chain: DIQMTQSPSSLSASVGDRVTITCQASQDITNYLNWYQQKPGKAPKLLIYDASNLETGVPSRFSGSGSGTDFTFTISSLQPEDIATYYCQQADNHPPWTFGGGTKVEIK
B1: the PAD with Cloudman S91 tumors is given as 3 mg/kg; in the data set on MBT2 tumors (MBT-2, dose range 3 and 10 mg/kg), 10 mg/kg; in the data set with EMT6 tumors, 10 mg/kg. For the same molecule, the tumor-free survivors in the data set on MBT2 tumors (MBT2, 3 mg/kg per week + anti-PD-1) amounted to 21%; with MBT2 tumors (MBT2, 10 mg/kg per week + anti-PD-1), 36%. In data set [1], the “pSmad3 staining in tumor vascular endothelium” value was “much diminished”. Besides, in data set [2], the “pharmacologically active dose (range)” value is listed as 3-10 mg/kg. Also, the “Cmax (mean, range over dose groups)” value in data set [3] is 7400 to 664000 ng/mL. Moreover, the AUC0-inf came to 4890 µg·h/mL in data set [3] (3 mg/kg), 17800 µg·h/mL in data set [3] (10 mg/kg) and 64200 µg·h/mL in data set [3] (30 mg/kg). Also, the AUClast in data set [3] (3 mg/kg) is 4710 µg·h/mL; in data set [3] (10 mg/kg), 17400 µg·h/mL; in data set [3] (30 mg/kg), 64100 µg·h/mL.
